Measurements from patent US20150231240A1, “ANTI-C16ORF54 ANTIBODIES AND METHODS OF USE THEREOF” (priority 2012, published 2015).

T1: cynomolgus monkey C16orf54 (cynomolgus monkey (Macaca fascicularis))
T1 sequence: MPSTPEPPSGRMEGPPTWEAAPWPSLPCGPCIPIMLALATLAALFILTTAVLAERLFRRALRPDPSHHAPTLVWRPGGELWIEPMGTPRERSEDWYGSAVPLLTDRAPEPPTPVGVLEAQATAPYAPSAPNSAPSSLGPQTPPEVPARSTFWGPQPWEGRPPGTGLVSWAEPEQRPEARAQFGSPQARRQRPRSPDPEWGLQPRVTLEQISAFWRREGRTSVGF

T2: human C16orf54 (human, UniProt Q6UWD8 1-224)
T2 construct: also called huC16orf54; hC16orf54
T2 sequence: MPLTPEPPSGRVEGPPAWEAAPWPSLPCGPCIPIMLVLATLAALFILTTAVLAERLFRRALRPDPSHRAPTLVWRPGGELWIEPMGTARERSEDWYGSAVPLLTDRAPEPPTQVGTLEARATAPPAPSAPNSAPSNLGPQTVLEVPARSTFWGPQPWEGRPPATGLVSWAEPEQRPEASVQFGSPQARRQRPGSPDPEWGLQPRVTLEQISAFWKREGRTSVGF

T3: cynomolgus monkey C16orf54 (cynomolgus monkey (Macaca fascicularis), UniProt Q6UWD8 1-224 (human entry))
T3 construct: also called cyno C16orf54; cyno-C16orf54
T3 chain: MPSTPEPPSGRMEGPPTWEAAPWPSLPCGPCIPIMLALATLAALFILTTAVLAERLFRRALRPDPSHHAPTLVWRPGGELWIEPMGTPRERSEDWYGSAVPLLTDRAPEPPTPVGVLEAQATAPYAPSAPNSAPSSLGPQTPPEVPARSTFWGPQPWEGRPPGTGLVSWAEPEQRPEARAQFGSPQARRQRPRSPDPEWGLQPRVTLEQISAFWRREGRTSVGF

T4: Cyno C16-ECD peptide (aa1-31) (cynomolgus monkey)
T4 construct: Coated on plates in the peptide ELISA; also called cyno extracellular domain peptide; Cyno ECD
T4 peptide: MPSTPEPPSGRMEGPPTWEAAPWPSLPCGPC

T5: human C16orf54 ECD fragment aa1-15 (human)
T5 peptide: MPLTPEPPSGRVEGP

T6: human C16orf54 ECD fragment aa9-24 (human)
T6 peptide: SGRVEGPPAWEAAPWP

T7: Human C16-ECD peptide (aa1-31) (human)
T7 construct: Coated on plates in the peptide ELISA; also called human extracellular domain peptide
T7 peptide: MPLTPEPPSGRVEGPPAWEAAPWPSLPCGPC

T8: N-terminal 32 amino acids of huC16orf54 coupled to biotin (human, biotin at the C-terminus)
T8 construct: also called 32 amino acid N-terminal extracellular domain
T8 peptide: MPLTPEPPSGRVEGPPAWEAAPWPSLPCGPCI

B1: R29-8-58C (antibody, V domains shown)
VH: EVKLVESGGGLVKPGGSLKFSCAASGFTFSSYAVSWVRQTPEKRLEWVASITSGGRSYYPDSVKGRFTISRDNARSMLYLHMSSLRSEDTAMYYCTRGWDENDLWGQGTTLTVSS
VL: DVVMTQTPLSLFVSLGDQASISCRSSQSLLYSNGNTYLHWYLQRPGQSPQLLIYKVSNRFSGVPDRFSGSGSGTDFTLKISRVEAEDLGVYFCSQTTHVPWTFGGGTKLEIK
notes: Murine monoclonal antibody from a hybridoma
B2: R29-8-75B (antibody, V domains shown)
VH: DVQLVESGGGLVQPGGSRKLSCAASGFTFSRFGMHWVRQAPEKGLEWVAYISSGSSTIYYADTVKGRFTISRDNPKNTLFLQMTSLRSEDTAMYYCARVDYDVALAYWGQGTLVTVSA
VL: GVLMTQTPLSLPVSLGDQASISCRSSQSIVHRNGNTYLEWYLQKPGQSPKLLIYKVSNRFSGVPDRFSGSGSGTDFTLKISRVEAEDLGVYYCFQGSQWTFGGGTKLEIK
notes: as for B1
B3: R29-67-7A (antibody, V domains shown)
VH: DVQLQESGPGLVKPSQSLSLTCTVTGYSITSDYAWNWIRQFPGNKLEWMGYINYSGRTRYNPSLNSRISLTRDTSTNQFFLQLNSVTTEDTATYYCARENYDYEFYAMDYWGQGTSVTVSS
VL: DIVMSQSPSSLAVSVGEKVTMSCKSSQNLLYSSNQKNYLAWYQQKPGQSPKLLIYWASTRESGVPDRFTGSGSGTDFTLTISSVKAEDLAVYYCQQYYIYRTFGGGTKLEIK
notes: Murine monoclonal IgG2a from a hybridoma
B4: R29-7-2A (antibody, V domains shown)
VH: EVQLVESGGGLIQPKGSLKLSCVASGFSFNTHAMNWVRQAPGKGLEWVARIRSKSNNYARYYADSVKDRFTISRDDSQSILYLQMNNLKTEDTAMYYCVKQGDGGFAYWGQGTLVTVSA
VL: DIVMSQSPSSLAVSVGEKVTMSCKSSQSLLYSSNQKNYLAWYQQRPGQSPKLLIYWASARESGVPDRFTGSGSGTDFTLTISSVKAEDLAVYYCQQYYSYPPTFGAGTKVELK
notes: Murine monoclonal IgG2b from a hybridoma

Assays:
[1] = target: T1, cynomolgus monkey C16orf54 (cynomolgus monkey (Macaca fascicularis)); experiment: flow cytometry, 10 ug/ml antibody, F279-cyno-C16orf54 cells
[2] = target: T2, human C16orf54; experiment: flow cytometry, 10 ug/ml antibody, D42M1-huC16orf54 cells
Procedure: (§1) Anti-C16orf54 antibodies which bound to human C16orf54 were tested for their reactivity with human C16orf54 and their crossreactivity with C16orf54 from cynomolgous monkeys (cyno C16orf54) using flow cytometry. Sarcoma cells transfected with and expressing human C16orf54 or cyno C16orf54 were washed with PBS with 0.1% BSA, incubated with FcX receptor blocking solution (BioLegend) for 15 minutes, incubated with 10 μg/ml of anti-C16orf54 antibody for 1 hour at 4° C., washed twice with PBS with 0.1% BSA, incubated with 20 μg/ml of R-Phycoerythrin-AffiniPure F(ab′)2 Fragment Goat Anti-Mouse IgG, Fcγ Fragment Specific (Jackson ImmunoResearch) for 30 minutes at 4° C., washed twice with PBS with 0.1% BSA, incubated with the viability dye TO-PRO-3 iodide (Life Technologies), and immediately analyzed on a MACSQuant Analyzer instrument (Miltenyi). For each cell line and anti-C16orf54 antibody, a fold change was derived by dividing the median fluorescence intensity for Phycoerythrin in the live cell population for the anti-C16orf54 antibody by the median fluorescence intensity for Phycoerythrin in the live cell population for the IgG isotype control antibody. A number of anti-C16orf54 antibodies (see, e.g., R29-8-57B, R29-8-136C, R29-7-1C, R29-67-7A, R29-67-4A, and R29-7-2A) bind human C16orf54 and also bind (e.g., are crossreactive with) cyno C16orf54.

[3] = target: T2, human C16orf54; experiment: flow cytometry titration, KG1 cells (endogenous human C16orf54)
[4] = target: T3, cynomolgus monkey C16orf54; experiment: flow cytometry, 10 ug/ml antibody, F279-cyno-C16orf54 cells
Procedure: as §1

[5] = target: T4, Cyno C16-ECD peptide (aa1-31); experiment: peptide ELISA, 2 ug/ml peptide coated, 10 ug/ml antibody; column 'Cyno ECD bound by antibody'
Procedure: (§2) Anti-C16orf54 antibodies which bind to human C16orf54, including antibodies that are crossreactive with cyno C16orf54, were tested for their binding to various peptides derived from C16orf54 in a peptide ELISA. A 384-well high binding black microplate (Greiner) was incubated with 2 μg/ml of protein (human, cyno, or mouse extracellular domain peptides) for 16 hours, incubated for 1 hr with a blocking buffer (PBS with 5% Fetal Bovine Serum), washed four times with TBS with Tween, incubated for 1 hour with 10 μg/ml of anti-C16orf54 antibody, washed four times with TBS with Tween, incubated for 1 hour with 10 μg/ml of Peroxidase-AffiniPure Goat Anti-Mouse IgG, Fcγ Fragment Specific (Jackson ImmunoResearch), washed four times with TBS with Tween, and peroxidase was detected with a luminometer (Molecular Devices) upon addition of SuperSignal® ELISA Pico Chemiluminescent Substrate (Thermo Scientific). The luminescence signal was determined.

[6] = target: T5, human C16orf54 ECD fragment aa1-15; experiment: peptide ELISA, 2 ug/ml peptide coated, 10 ug/ml antibody; column 'Human ECD & ECD fragments bound by antibody'
Procedure: as §2

[7] = target: T6, human C16orf54 ECD fragment aa9-24; experiment: as above
Procedure: as §2

[8] = target: T7, Human C16-ECD peptide (aa1-31); experiment: column head 'Full kinetics (nM)' in the table of the C16orf54 peptide binding assays; method and antigen not described; 2 runs; 2 runs, stdev 0.02
[9] = target: T3, cynomolgus monkey C16orf54; experiment: flow cytometry titration, F279-cyno-C16orf54 cells
Procedure: Anti-C16orf54 antibodies which bound to human C16orf54 were tested for their binding to cells expressing human C16orf54 and cells expressing cyno C16orf54. […] Median fluorescence intensities for each primary antibody concentration were used to derive a flow EC50/Kd using the one site-specific binding with Hill slope model in Prism (GraphPad Prism® Software). Results are shown as flow EC50 in Table 35.

[10] = target: T5, human C16orf54 ECD fragment aa1-15; experiment: peptide ELISA, 2 ug/ml peptide coated, 10 ug/ml antibody
Procedure: as §2

[11] = target: T6, human C16orf54 ECD fragment aa9-24; experiment: as above
Procedure: as §2

[12] = target: T8, N-terminal 32 amino acids of huC16orf54 …; experiment: biolayer interferometry (OctetQK384), hybridoma supernatant on streptavidin sensors coated with the biotinylated peptide
Procedure: Eight anti-huC16orf54 monoclonal antibodies were further screened for binding and subsequent off-rate analysis using the OctetQK384® sytem (ForteBio). Hybridoma supernatants were screened for association to and dissocation from streptavidin sensors coated with the N-terminal 32 amino acids of huC16orf54 coupled to biotin, and the calculated offrates (kdis) are shown in Table 31. Cloned hybridomas with […] off-rates were carried forward for antibody purification.

[13] = target: T7, Human C16-ECD peptide (aa1-31); experiment: column head 'Full kinetics (nM)' in the table of the C16orf54 peptide binding assays; method and antigen not described; 1 run
[14] = target: T8, N-terminal 32 amino acids of huC16orf54 …; experiment: biolayer interferometry (OctetQK384), purified antibody on streptavidin sensors coated with the biotinylated peptide
Procedure: Affinity measurements of purified anti-huC16orf54 antibodies were carried out on the OctetQK384® sytem (ForteBio). After coating streptavidin sensors with the N-terminal 32 amino acids of huC16orf54 coupled to biotin at the C-terminus, association and dissociation of purified anti-huC16orf54 antibodies was monitored. KD values were derived using ForteBio's software.

[15] = target: T7, Human C16-ECD peptide (aa1-31); experiment: column head 'Full kinetics (nM)' in the table of the C16orf54 peptide binding assays; method and antigen not described; 4 runs

Binder | Median fold change relative to IgG control [1] | Median fold change relative to IgG control [2] | EC50 [3] | Median fold change relative to IgG control [4] | binding result [5] | binding result [6] | binding result [7] | Kd [8] | EC50 [9] | binding result [10] | binding result [11] | koff [12] | Kd [13] | Kd [14] | koff [14] | kon [14] | Kd [15]
B1 | 1.4 fold | 184 fold | 0.6 nM | – | – | – | – | – | – | – | – | – | – | – | – | – | –
B2 | – | 148 fold | 6.5 nM | 7.8 fold | binds | binds | binds | 0.09 nM | – | – | – | – | – | – | – | – | –
B3 | – | 140 fold | 7.3 nM | 35.6 fold | – | – | – | – | 3.7 nM | binds | binds | 0.00845 s⁻¹ | 2.51 nM | – | – | – | –
B4 | – | 267 fold | 1 nM | 78.5 fold | – | binds | binds | – | 2.7 nM | – | – | 0.00707 s⁻¹ | – | 1.3 nM | 4.12e-05 s⁻¹ | 31900 M⁻¹ s⁻¹ | 1.01 nM
